# PMC12668182 (2025)
# B1: SNM1A (WT, a.a. 698-1040, untagged) (domain or fragment)
# chain: KKTCPFYKKIPGTGFTVDAFQYGVVEGCTAYFLTHFHSDHYAGLSKHFTFPVYCSEITGNLLKNKLHVQEQYIHPLPLDTECIVNGVKVVLLDANHCPGAVMILFYLPNGTVILHTGDFRADPSMERSLLADQKVHMLYLDTTYCSPEYTFPSQQEVIRFAINTAFEAVTLNPHALVVCGTYSIGKEKVFLAIADVLGSKVGMSQEKYKTLQCLNIPEINSLITTDMCSSLVHLLPMMQINFKGLQSHLKKCGGKYNQILAFRPTGWTHSNKFTRIADVIPQTKGNISIYGIPYSEHSSYLEMKRFVQWLKPQKIIPTVNVGTWKSRSTMEKYFREWKLEAGY
# Molecular target: N-His-ZB-CSB-Avi-Biotin (WT), full length (human, UniProt Q03468 1-1493, biotin on the C-terminal Avi tag)
# Sequence (Q03468 whole entry): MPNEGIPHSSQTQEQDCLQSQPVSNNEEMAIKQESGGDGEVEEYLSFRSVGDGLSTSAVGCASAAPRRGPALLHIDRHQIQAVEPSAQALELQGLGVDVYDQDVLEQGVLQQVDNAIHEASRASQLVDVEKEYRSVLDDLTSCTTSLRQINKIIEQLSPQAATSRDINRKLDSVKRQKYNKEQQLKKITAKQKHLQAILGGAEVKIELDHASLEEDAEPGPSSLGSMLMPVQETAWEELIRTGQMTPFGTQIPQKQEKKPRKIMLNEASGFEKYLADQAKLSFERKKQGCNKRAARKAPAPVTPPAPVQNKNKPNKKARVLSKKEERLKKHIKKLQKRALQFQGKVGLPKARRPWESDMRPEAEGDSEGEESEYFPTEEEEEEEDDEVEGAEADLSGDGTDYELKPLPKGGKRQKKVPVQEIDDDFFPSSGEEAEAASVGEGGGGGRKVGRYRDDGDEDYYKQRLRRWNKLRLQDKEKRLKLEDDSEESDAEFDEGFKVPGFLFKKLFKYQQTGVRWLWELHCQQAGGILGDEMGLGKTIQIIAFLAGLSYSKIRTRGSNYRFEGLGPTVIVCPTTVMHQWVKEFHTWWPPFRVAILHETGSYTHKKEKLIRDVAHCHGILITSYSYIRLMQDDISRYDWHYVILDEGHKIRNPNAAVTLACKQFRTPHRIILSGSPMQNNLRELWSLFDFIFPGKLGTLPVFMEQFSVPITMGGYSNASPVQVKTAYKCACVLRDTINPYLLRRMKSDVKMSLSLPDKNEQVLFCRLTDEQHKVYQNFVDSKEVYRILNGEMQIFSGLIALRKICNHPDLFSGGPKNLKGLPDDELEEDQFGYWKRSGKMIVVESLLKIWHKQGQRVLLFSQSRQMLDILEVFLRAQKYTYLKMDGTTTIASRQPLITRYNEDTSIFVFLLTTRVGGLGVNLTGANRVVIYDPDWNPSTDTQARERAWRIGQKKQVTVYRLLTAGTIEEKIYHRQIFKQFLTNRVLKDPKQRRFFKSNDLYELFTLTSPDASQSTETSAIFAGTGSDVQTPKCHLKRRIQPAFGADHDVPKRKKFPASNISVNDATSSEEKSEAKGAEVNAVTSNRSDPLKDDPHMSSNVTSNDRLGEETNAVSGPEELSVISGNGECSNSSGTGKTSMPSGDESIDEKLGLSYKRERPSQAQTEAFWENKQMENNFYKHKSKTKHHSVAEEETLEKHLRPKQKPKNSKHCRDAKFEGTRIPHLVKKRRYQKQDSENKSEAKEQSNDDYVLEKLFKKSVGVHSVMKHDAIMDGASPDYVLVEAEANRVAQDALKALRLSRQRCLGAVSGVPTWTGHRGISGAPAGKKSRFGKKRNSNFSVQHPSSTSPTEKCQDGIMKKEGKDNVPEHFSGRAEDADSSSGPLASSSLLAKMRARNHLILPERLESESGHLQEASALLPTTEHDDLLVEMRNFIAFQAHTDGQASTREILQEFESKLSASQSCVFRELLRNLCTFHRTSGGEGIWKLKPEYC
# Assay: SPR
binder,measurement,value
B1,Kd,140 nM
